The values below come from publication PMC6446880.

The target in the data set is T1, IRF3 K359A (IRF3 (K359A)-his) (UniProt P70671 1-419, K359A).
T1 sequence: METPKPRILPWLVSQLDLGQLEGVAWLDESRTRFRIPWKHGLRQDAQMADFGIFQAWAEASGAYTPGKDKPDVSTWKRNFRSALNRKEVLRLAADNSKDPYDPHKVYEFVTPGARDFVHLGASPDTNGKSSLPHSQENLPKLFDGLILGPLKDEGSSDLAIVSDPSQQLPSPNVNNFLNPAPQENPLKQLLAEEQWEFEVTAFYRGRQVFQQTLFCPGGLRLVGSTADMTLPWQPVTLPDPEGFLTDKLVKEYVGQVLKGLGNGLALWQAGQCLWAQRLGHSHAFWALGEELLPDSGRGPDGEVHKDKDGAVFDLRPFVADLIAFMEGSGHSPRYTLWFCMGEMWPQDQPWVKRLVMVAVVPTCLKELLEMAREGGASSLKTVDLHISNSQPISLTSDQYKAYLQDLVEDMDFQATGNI
The data set is described as follows: EMSA.

B1: IFN-α (Ifna4) promoter probe (dsDNA)
DNA 1: GAAAGTGAAAAGAGAATTGGAAAGC
DNA 2: GCTTTCCAATTCTCTTTTCACTTTC
Take B1: the binding result is listed as “binds”.

B2: IFN-β (Ifnb) promoter probe (dsDNA)
DNA 1: GAAAACTGAAAGGGAGAACTGAAAGT
DNA 2: ACTTTCAGTTCTCCCTTTCAGTTTTC
As to B2, the binding result is listed as “binds”.
